In IntAct's records for PubMed 17555716:

B1: 26S proteasome regulatory subunit 6B homolog (Saccharomyces cerevisiae), P33298 (parent)
chain: MEELGIVTPVEKAVEEKPAVKSYASLLAQLNGTVNNNSALSNVNSDIYFKLKKLEKEYELLTLQEDYIKDEQRHLKRELKRAQEEVKRIQSVPLVIGQFLEPIDQNTGIVSSTTGMSYVVRILSTLDRELLKPSMSVALHRHSNALVDILPPDSDSSISVMGENEKPDVTYADVGGLDMQKQEIREAVELPLVQADLYEQIGIDPPRGVLLYGPPGTGKTMLVKAVANSTKAAFIRVNGSEFVHKYLGEGPRMVRDVFRLARENAPSIIFIDEVDSIATKRFDAQTGSDREVQRILIELLTQMDGFDQSTNVKVIMATNRADTLDPALLRPGRLDRKIEFPSLRDRRERRLIFGTIASKMSLAPEADLDSLIIRNDSLSGAVIAAIMQEAGLRAVRKNRYVILQSDLEEAYATQVKTDNTVDKFDFYK
partner: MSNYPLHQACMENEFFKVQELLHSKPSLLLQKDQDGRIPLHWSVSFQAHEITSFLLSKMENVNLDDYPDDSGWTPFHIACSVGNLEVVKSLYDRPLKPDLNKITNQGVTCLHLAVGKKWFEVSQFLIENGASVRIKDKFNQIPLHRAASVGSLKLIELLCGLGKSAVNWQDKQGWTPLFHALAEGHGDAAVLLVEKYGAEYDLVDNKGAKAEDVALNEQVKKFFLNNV

Variants of: B1
Conditions: with psd10_yeast NAS6, P50086

Variant | effect of a mutation on the interaction
MEELGIVTPVEKAVEEKPAVKSYASLLAQLNGTVNNNSALSNVNSDIYFKLKKLEKEYELLTLQEDYIKDEQRHLKRELKRAQEEVKRIQSVPLVIGQFLEPIDQNTGIVSSTTGMSYVVRILSTLDRELLKPSMSVALHRHSNALVDILPPDSDSSISVMGENEKPDVTYADVGGLDMQKQEIREAVELPLVQADLYEQIGIDPPRGVLLYGPPGTGKTMLVKAVANSTKAAFIRVNGSEFVHKYLGEGPRMVRDVFRLARENAPSIIFIDEVDSIATKRFDAQTGSDREVQRILIELLTQMDGFDQSTNVKVIMATNRADTLDPALLRPGRLDRKIEFPSLRDRRERRLIFGTIASKMSLAPAAALDSLIIRNDSLSGAVIAAIMQEAGLRAVRKNRYVILQSDLEEAYATQVKTDNTVDKFDFYK [E365A;D367A] | disrupting interaction strength
MEELGIVTPVEKAVEEKPAVKSYASLLAQLNGTVNNNSALSNVNSDIYFKLKKLEKEYELLTLQEDYIKDEQRHLKRELKRAQEEVKRIQSVPLVIGQFLEPIDQNTGIVSSTTGMSYVVRILSTLDRELLKPSMSVALHRHSNALVDILPPDSDSSISVMGENEKPDVTYADVGGLDMQKQEIREAVELPLVQADLYEQIGIDPPRGVLLYGPPGTGKTMLVKAVANSTKAAFIRVNGSEFVHKYLGEGPRMVRDVFRLARENAPSIIFIDEVDSIATKRFDAQTGSDREVQRILIELLTQMDGFDQSTNVKVIMATNRADTLDPALLRPGRLDRKIEFPSLRDRRERRLIFGTIASKMSLAPEADLDSLIIRNDSLSGAVIAAIMQEAGLRAVRANAYVILQSDLEEAYATQVKTDNTVDKFDFYK [K397A;R399A] | disrupting interaction strength
